Data: the domain aggregation screens of Martell et al. (2025)

Test: soluble fraction after stress (log2 fold change); higher = more stays soluble; pooled small domains, quantitative proteomics
Settings: stress: 50 degC
How it was run: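 Custom libraries of small protein domains were pooled and measured in a high-throughput format, with quantitative proteomics as the read-out. Each library was stressed at 50°C. The value is the log2 fold change in the amount of each protein that stays soluble after stress, used as a measure of aggregation propensity; higher values mean more of the protein stays soluble.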

Sequence	soluble fraction (log2)
HMKKIYEEVSEAILTMIKNGTLKPGDKLLPVHQLAEQFQVGRSAVREALSALRAMGLIEMKQGEGTYVKNF	-0.462
HMKEKDAYTSEILDTLKNAKLLVVEGTVYPLLTRLKNDGLLNYRWEESTSGPPRKYYGLTDEG	-0.445
HMGIKAADIVTNDIQFNTQAQFDKYKDLYPTLGWGNYDPNKTYTMQGFKNKLKPNELFTGTPNLKIEDT	0.141
HMKQFVVQYYGIDGEVINSVYKNGMSDLTSYEPEKIDGKNFKGWSLSEDSKKVIDENYRINSDVNLYAVYT	0.0253
HMNNTIKFSVDTTNSGKRLDIFLAENIKQFTRSYLKKIISNNQVKLNNLVANSPSIKVKHSDLILINILE	-1.82
HMNILKKDKRLWDENNLNKPLLFELLENYDKEIFELLLTDKDIKAKFFVQAGESYVFKYDDFRFAIEQN	-0.702
HMTDYVPTIGTKISKDFGSKGYFEGEVVSGPHNVTVEGDNMVVWKVQYEDGDREEMTASEIAHWKA	-0.105
HMEGNWGLWAKVPNRFAALTTDKDSALRRFKSKEDGEAWMASHGLKPERFDVLEIPADYKPA	0.0433
HMVTARMPDLFGLDEATAQRMVSNAGLTLKTEYAYSDQAEGYVFDQTPEANAEVRRGGTVTAMIS	0.0381
HMKMNRELNQRQIKMLDYLSVNPKTTRKQYTKMMGISFMTSYRDIQELIDKAYIISKGQGRGTYYILAN	-0.569
HMLTRRQSEVLDFIRQFAESESMPPTLHEIAKGMGFSSDNAARDHVRALARKGAIDLVGGTSRGIRLR	-0.354
HMPTEPTARELEVTTLLAQGLSNREIAGALFISEHTVRNHLGHVFSKLGVSSRTQAVVRAGQLGWLR	-2.14
HMFRSNAERAAHLASALPRAEAELAALQARGAATSENIYLRSSYFDALRYTEELRAAKRAQDALQGA	0.0735
HMHNNTITLNKKTYVYTASGKKMSKYLGYTYINKGTTLNYYGTKNIKGKTFYYIGDHAYVNAANVGKVTN	-1.92
HMREIRIIAEEGHGRLDAFLAGREELGLSRSRIKGLIEEGQVTLNGAVPKAKQPVSPGDEIVVSVPD	0.141
HMVSNFEAEFGRHFAIFFPGSEFTELKLRLLEEGAELIDPIRDTPFERFFFKDPNGYIFEVIDKE	-2.28
HMQISDTSELEAVVQDILKANMDVVAKIKAGKTNSANFLMGQVMKLTKGRAKPDTVLQLILDAVKQ	-0.301
HMEIFYSARAWAKLNDLVATRTYLQHLGAIAGRIGRSEGLSPDRIPDGRDGAVNGWPLWVWDRAYAEVS	-2.89
HMDPYEYQLELEKLINNATELNKKYNYDPLKDKILAADAVKNSLETYVLQNYIVALENEIKQTLNQYQIL	-0.44
HMVLRPDDVEDSLWREWVSHRKAKRAAVTEGVLKTFRQEATKASFTLADAMRKSIDRGWTGFEAEWVARET	-0.074
HMSFESMGLTPRQADVLTLLLQGKSNKDIARRLVLSVETVKDHVQAVLRALGVSSRTQAVLAVGQMTQQ	-0.292
HMPLTPATADAGRFVKQDRKYIRLLAKRYNFTHGDIKSEIDRVSAVLSSNGIDRVPLFLYKEYLEQYLAG	-1.85
HMKEILVGVEPLSKKQIIIKKGIKGRSDYIIFEKKNYGLPENLKPEEVSIEIALKIIDEKKKRKA	-1.23
HMAEERVLSVPQSLAGERLDAALASLMPDYSRSRLASWIKEGLVTVDGAGAMPKQKLWGGETLRVQAQPT	0.463
HMNTDEYEQKRGEILDAAQRLIYTKGYERMSIQDILDELKISKGAFYHYFDSKQSLLEALTARMMTE	-0.101
HMRDPFDALSARERAVASLVQRGLRNKEVASELGLTEGTVKVHLHKVFDKLGIRGRTELILLAQER	-0.79
HMGDGRVGVITASIAYEYAKEVFPEGTSFLKLGLTFPLPMDLIRDFASKVEKLYVIEELEPL	-0.215
HMSAVNLNDDEKAVYKSIKSGIRSLDELSLRTGMKIYELMAITVSLEMKGLVTKSPDGTLDAT	0.147

Sequence	soluble fraction (log2)
HMRLDVALRGVLLDGDPTQSRAFVLVSGTTSTYRLGETVQSAELVAINADTITLRTETGLHVIGFDGLI	-2.48
HMSSWEEQLKIWAKNELASGNTDILARATVSFEQILIEAALTHTGGRKKTAAELLGWGRNTLTRKIKELHI	-0.29
HMEHDYGLSGREREVLELMVQGLVKKEIADRLALSYHTVDNHLRSIYAKLQVHTRGGAVAKALSEHLVPP	0.217
HMTKLLITNYERNVLINSYLLKNTPELDDIRRLLVHNKHISENDVSTEMARRIKKHKADWLRVT	-2.71
HMKPTSLLGIERYLGSGLIRGVGPSTAKQIVEHFGMETMEVLTEHPERLQEVHGMGRKRWRQIAESFQEQQ	-0.797
HMNSSHRLIGLDPGLRVTGWGIVDAIGTKLVHVANGSVKSQQNAPLATRLLELENGLEEVFDNWQPDFA	0.148
HMVERRVRFTVAPGNAGLRLDLFLTAREIGLSRTQVGRAVDEGQIQVNGRPGRAGRKLKTGDVVAIVLPA	-0.783
HMHITSFTIKQADQIVGTTPVREQAVGAAKARAQQTGTPVSVIAYLDTGEEREVIIHPDGTN	0.324
HMRQDEKTLLYWIAGHLKREGRQITERSARHLVEQVGTDMENLSREMEKLIAYTMGRTEITGQDIDDI	-1.68
HMGNEEEEAIREAEEAIERVLEYGEPQELNPQNGFIRRLQHQLAEKSHLSSESVGVEPYRRVRISK	0.185
HMQPPVDGNEIMEIFGIKGSPVIGVIKSTIKNAILDGIIAPNDREAALELMFRIADENGLKPVVTQTQ	0.101
HMNKYYQQLLQADPTGFIDPFKDLGTYDSRLNTFKEPVSELLNPFSGRPYSKIWQKRIETMREIFISYIKS	-2.86
HMSGTGSYVALLRDPQGNVGKVVVKGSKGEQVLSQPQQAARLDGATPSYEVTGRQIAEDFGRALAV	0.127
HMRRGPLTPDDFVLDMRVVHPRYGVGRIVALSGSGESRKATVDFGGSIGRMKFVLSQSPLKP	-0.414
HMEGSRASMDGQVPGKTSYLEWLARQPAQRQDQVLGAERGRLFRAGEIDLADMFTDKGEWISLERLKQLS	0.221
HMSMRILNHTVVKILKRYRIATDEQLQPLLDEAERSGRSLQDVVLDAKLVSETELTKLFADYAD	-0.0864
HMSTVAETVYNEIRDDILYGELQPGVKLKLEALRERYSVGVNTLREVLNRLVASGFVFVEGQKGFRVV	0.0966
HMNTLLYAPKVSPNPFTPNADGINDVVNISYKLLRVISAVPISVEVFDLSGRLIKTLYSGVDPLGEY	0.158
HMSSDLVDYLVKYVAIVDNQEIEIADSKIGTAELGTTVSEVAKTVGNYYPKATVLSVKITGRNQEIVFEY	-2.83
HMLKDININVTGLDQISNAKLINNLNLLKMNNLFFLDEKKIKKILNSNNLIEKFFIFKKYPSTLDIKVYKT	-0.0369
HMTAYENSIPLNWVIQKGDAKGLPLSANTARLLIDIVGIDLMDLDHELEKISLYLSGESITEEMIKEHIRG	-0.668
HMQKKEVTVPEVRSKSLKEAAQILSEQNLKYETEPVNVENPDMVVIDQFPKPGGKISEQSVIILYLR	≥ 0.62
HMSKEGLASLLEDINGLGAIRRKTLIDHFGSVAKIRGARPEEIAALPGMGRKIAEHILASLRED	-0.251
HMNNPNFAIQKYVTGSDIKRVRKTLRLTQKKFAELVGVSKATMERWETKEDKITGPVVLLLKILEDHPEY	-1.3
HMTRRGPLTEGDRVQVRDPKGRFHQVILVRGGRFQSNRGGFNHDDVIGRPDGQVIITDEGRQFQIL	0.512
HMTIEEMAIENINFSTQLLYKAMKYNGVNTVGDLLEKARSKKDLLTMAYIGNKEAEEIIEKLSELGITI	-0.23
HMLKLPVEYLNLKYQLMHATSLDKPNNLMKLDEKLGKIIDVYYDDLPVDEQRVVDILQSKLYSY	-0.996
